Data from publication PMC9156947, “Identification of STAU1 as a regulator of HBV replication by TurboID-based proximity labeling” (iScience, 2022).

B1: N8-TAF10 (natural protein)
chain: not shown
notes: source: transfected cells (tripartite NanoLuc system), in cells
B2: N8-HBx (natural protein)
chain: MAARLCCQLDPARDVLCLRPVGAESRGRPFSGSLGTLSSPSPSAVPTDHGAHLSLRGLPVCAFSSAGPCALRFTSARRMETTVNAHQILPKVLHKRTLGLSAMSTTDLEAYFKDCLFKDWEELGEEIRLKVFVLGGCRHKLVCAPAPCNFFTSA
notes: also called X protein; wild type HBx; source: HepG2, transfected, in cells; not shown: N8 tag (tripartite NanoLuc), N-terminal, kept

Tests used:
[1] = molecular target: T1, C10-STAU1 (UniProt O95793 1-577); assay: split reporter (BiFC, NanoBiT); tripartite Nanoluc luciferase: C10-tagged and N8-tagged proteins co-transfected with a plasmid expressing Nano1-7 into HepG2 cells; luciferase activity measured 48 h post-transfection; settings: partners not purified
T1 construct: also called wild type STAU1; source: HepG2, transfected, in cells; not shown: C10 tag (tripartite NanoLuc), N-terminal, kept
T1 sequence (looked up): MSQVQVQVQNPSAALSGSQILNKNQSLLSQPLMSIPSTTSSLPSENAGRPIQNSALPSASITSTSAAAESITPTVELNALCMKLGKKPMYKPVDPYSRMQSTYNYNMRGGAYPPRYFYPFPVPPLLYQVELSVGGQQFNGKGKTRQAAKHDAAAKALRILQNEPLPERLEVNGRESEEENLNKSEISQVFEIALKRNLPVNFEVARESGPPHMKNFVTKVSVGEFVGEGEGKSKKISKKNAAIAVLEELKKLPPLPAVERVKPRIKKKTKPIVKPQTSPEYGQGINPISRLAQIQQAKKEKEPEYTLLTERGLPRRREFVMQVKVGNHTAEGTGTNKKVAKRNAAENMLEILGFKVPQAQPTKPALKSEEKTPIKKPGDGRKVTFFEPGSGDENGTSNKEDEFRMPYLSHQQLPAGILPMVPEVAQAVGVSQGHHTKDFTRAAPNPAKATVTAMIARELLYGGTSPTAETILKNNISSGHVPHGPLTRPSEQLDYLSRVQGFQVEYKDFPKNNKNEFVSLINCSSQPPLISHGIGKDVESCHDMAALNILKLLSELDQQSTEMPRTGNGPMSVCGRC

[2] = molecular target: T2, C10-DDB1 (UniProt Q16531 1-1140); assay: as above; settings: partners not purified
T2 construct: also called wild type DDB1; source: HepG2, transfected, in cells; not shown: C10 tag (tripartite NanoLuc), N-terminal, kept
T2 sequence (Q16531 whole entry): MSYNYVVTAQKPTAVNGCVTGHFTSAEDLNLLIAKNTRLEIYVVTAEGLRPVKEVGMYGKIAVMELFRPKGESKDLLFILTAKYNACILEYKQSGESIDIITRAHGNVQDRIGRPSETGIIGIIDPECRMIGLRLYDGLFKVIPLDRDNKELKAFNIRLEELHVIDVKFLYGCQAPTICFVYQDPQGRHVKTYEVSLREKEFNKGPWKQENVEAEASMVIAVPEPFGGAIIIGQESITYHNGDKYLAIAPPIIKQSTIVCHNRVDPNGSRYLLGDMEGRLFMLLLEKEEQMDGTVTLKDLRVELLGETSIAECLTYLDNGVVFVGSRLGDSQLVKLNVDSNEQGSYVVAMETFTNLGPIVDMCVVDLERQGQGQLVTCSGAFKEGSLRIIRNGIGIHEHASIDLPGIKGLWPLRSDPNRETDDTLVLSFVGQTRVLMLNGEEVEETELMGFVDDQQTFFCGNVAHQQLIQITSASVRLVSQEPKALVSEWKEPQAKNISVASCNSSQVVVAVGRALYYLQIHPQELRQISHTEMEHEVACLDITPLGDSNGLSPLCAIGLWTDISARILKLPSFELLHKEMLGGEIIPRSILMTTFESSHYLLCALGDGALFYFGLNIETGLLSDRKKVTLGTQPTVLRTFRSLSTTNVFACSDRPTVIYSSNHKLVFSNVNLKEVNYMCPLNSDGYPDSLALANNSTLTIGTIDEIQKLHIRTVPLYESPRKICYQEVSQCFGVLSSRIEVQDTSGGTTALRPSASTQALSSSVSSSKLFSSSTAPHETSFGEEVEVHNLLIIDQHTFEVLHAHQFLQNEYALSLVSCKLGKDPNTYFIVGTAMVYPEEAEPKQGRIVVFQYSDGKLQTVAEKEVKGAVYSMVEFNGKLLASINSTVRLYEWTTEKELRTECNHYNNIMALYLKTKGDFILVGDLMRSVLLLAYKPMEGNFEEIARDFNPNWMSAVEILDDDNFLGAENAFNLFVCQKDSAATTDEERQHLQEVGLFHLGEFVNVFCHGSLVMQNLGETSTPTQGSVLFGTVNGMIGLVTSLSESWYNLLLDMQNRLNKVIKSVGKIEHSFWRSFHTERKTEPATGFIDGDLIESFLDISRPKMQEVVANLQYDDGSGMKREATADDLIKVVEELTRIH

Binder | fold luminescence over the control [1] [fold] | fold luminescence over the controls [2] [fold] | fold luminescence over the controls [1] [fold]
B1 | > 20 | – | –
B2 | – | ~200 | 28
